Source: patent publication US20240376151A1, “STAPLED PEPTIDES AND METHODS THEREOF” (FOG PHARMACEUTICALS, INC., priority 2022, published 2024)

Target: T1, beta-catenin (Homo sapiens, UniProt P35222)
T1 construct: made in house; host or cells: E. coli BL21 (DE3) pLysS
T1 sequence (P35222 134-665): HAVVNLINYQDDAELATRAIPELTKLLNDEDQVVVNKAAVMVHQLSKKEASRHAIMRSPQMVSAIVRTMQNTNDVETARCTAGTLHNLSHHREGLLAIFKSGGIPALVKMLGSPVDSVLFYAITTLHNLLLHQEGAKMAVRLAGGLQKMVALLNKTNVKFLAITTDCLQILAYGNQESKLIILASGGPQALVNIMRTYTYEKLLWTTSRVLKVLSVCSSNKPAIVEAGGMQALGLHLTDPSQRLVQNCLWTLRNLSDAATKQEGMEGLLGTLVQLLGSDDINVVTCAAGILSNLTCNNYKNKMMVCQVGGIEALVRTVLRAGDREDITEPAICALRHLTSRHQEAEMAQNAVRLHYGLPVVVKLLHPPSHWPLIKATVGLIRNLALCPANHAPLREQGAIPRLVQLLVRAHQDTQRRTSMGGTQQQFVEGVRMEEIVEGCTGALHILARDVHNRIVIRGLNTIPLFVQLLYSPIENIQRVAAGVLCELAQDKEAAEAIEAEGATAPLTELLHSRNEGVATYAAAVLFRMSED
Test: Phage Library Screening with NGS, beta-catenin
Type: binding
Settings: for Target Concentration 10 (phage screen NGS readout): beta-catenin target concentration 10; for Target Concentration 10 (phage screen NGS readout) / Target Concentration 30 (phage screen NGS readout) / Target Concentration 100 (phage screen NGS readout) / Target Concentration 300 (phage screen NGS readout): no competitor; for Target Concentration 30 (phage screen NGS readout): beta-catenin target concentration 30; for Target Concentration 100 (phage screen NGS readout): beta-catenin target concentration 100; for Target Concentration 300 (phage screen NGS readout): beta-catenin target concentration 300; for Target Concentration 1000 (phage screen NGS readout): beta-catenin target concentration 1000

Sequence	Target Concentration BLANK (phage screen NGS readout) (first column)	Target Concentration BLANK (phage screen NGS readout) (fourth column)	Target Concentration BLANK (phage screen NGS readout) (second column)	Target Concentration BLANK (phage screen NGS readout) (third column)	Target Concentration 10 (phage screen NGS readout)	Target Concentration 30 (phage screen NGS readout)	Target Concentration 100 (phage screen NGS readout)	Target Concentration 300 (phage screen NGS readout)	Target Concentration 1000 (phage screen NGS readout) (first 1000 column)	Target Concentration 1000 (phage screen NGS readout) (second 1000 column)
DPAMWICEHAALNCEIR	0	0	0	0	2	6	46	158	145	152
DPANVECEWAAIHCSLV	0	0	0	0	13	2	19	158	164	187
DPAQQDCTLAAHVCRVF	0	0	0	0	0	0	19	21	70	11
DPAQSDCDWAAEHCNLI	0	0	0	0	0	1	0	23	9	57
DPARHECILAAHICEWE	1	0	2	2	41	151	612	1704	1683	1509
DPARMTCYEAAFRCQYY	0	0	0	0	0	2	2	3	11	9
DPASWDCDHAALLCTLD	0	1	0	0	3	6	86	257	283	238

Now from value to sequence:

Target Concentration BLANK (phage screen NGS readout) (first column)	Target Concentration BLANK (phage screen NGS readout) (fourth column)	Target Concentration BLANK (phage screen NGS readout) (second column)	Target Concentration BLANK (phage screen NGS readout) (third column)	Target Concentration 10 (phage screen NGS readout)	Target Concentration 30 (phage screen NGS readout)	Target Concentration 100 (phage screen NGS readout)	Target Concentration 300 (phage screen NGS readout)	Target Concentration 1000 (phage screen NGS readout) (first 1000 column)	Target Concentration 1000 (phage screen NGS readout) (second 1000 column)	Sequence
0	0	0	0	0	0	10	8	13	10	DPALWNCDHAALLCDHQ
0	0	1	0	0	0	4	33	19	42	DPAMIQCQWAAEHCELI
0	0	0	0	6	6	6	13	15	23	DPAMSQCNWAAVHCQLL
0	0	0	0	0	0	0	0	7	0	DPAMVTCYEAAYVCQYF
0	0	0	0	0	0	5	11	15	11	DPAQFYCEHAALLCRWE
0	0	1	0	0	13	37	109	177	82	DPAQNICEWAALHCDLI
0	0	1	0	6	35	226	419	326	432	DPAQWACEHAALLCSMD
0	0	0	0	0	6	20	18	21	57	DPASWRCEHAALNCQID
